We go through 1 variant from article PMC7736794.

B1: Flag-USP36 wild type [not stated] / Myc-PrimPol WT [not stated] (parent)
chain 1: MPIVDKLKEALKPGRKDSADDGELGKLLASSAKKVLLQKIEFEPASKSFSYQLEALKSKYVLLNPKTEGASRHKSGDDPPARRQGSEHTYESCGDGVPAPQKVLFPTERLSLRWERVFRVGAGLHNLGNTCFLNATIQCLTYTPPLANYLLSKEHARSCHQGSFCMLCVMQNHIVQAFANSGNAIKPVSFIRDLKKIARHFRFGNQEDAHEFLRYTIDAMQKACLNGCAKLDRQTQATTLVHQIFGGYLRSRVKCSVCKSVSDTYDPYLDVALEIRQAANIVRALELFVKADVLSGENAYMCAKCKKKVPASKRFTIHRTSNVLTLSLKRFANFSGGKITKDVGYPEFLNIRPYMSQNNGDPVMYGLYAVLVHSGYSCHAGHYYCYVKASNGQWYQMNDSLVHSSNVKVVLNQQAYVLFYLRIPGSKKSPEGLISRTGSSSLPGRPSVIPDHSKKNIGNGIISSPLTGKRQDSGTMKKPHTTEEIGVPISRNGSTLGLKSQNGCIPPKLPSGSPSPKLSQTPTHMPTILDDPGKKVKKPAPPQHFSPRTAQGLPGTSNSNSSRSGSQRQGSWDSRDVVLSTSPKLLATATANGHGLKGNDESAGLDRRGSSSSSPEHSASSDSTKAPQTPRSGAAHLCDSQETNCSTAGHSKTPPSGADSKTVKLKSPVLSNTTTEPASTMSPPPAKKLALSAKKASTLWRATGNDLRPPPPSPSSDLTHPMKTSHPVVASTWPVHRARAVSPAPQSSSRLQPPFSPHPTLLSSTPKPPGTSEPRSCSSISTALPQVNEDLVSLPHQLPEASEPPQSPSEKRKKTFVGEPQRLGSETRLPQHIREATAAPHGKRKRKKKKRPEDTAASALQEGQTQRQPGSPMYRREGQAQLPAVRRQEDGTQPQVNGQQVGCVTDGHHASSRKRRRKGAEGLGEEGGLHQDPLRHSCSPMGDGDPEAMEESPRKKKKKKRKQETQRAVEEDGHLKCPRSAKPQDAVVPESSSCAPSANGWCPGDRMGLSQAPPVSWNGERESDVVQELLKYSSDKAYGRKVLTWDGKMSAVSQDAIEDSRQARTETVVDDWDEEFDRGKEKKIKKFKREKRRNFNAFQKLQTRRNFWSVTHPAKAASLSYRR
chain 2: MNRKWEAKLKQIEERASHYERKPLSSVYRPRLSKPEEPPSIWRLFHRQAQAFNFVKSCKEDVHVFALECKVGDGQRIYLVTTYAEFWFYYKSRKNLLHCYEVIPENAVCKLYFDLEFNKPANPGADGKKMVALLIEYVCKALQELYGVNCSAEDVLNLDSSTDEKFSRHLIFQLHDVAFKDNIHVGNFLRKILQPALDLLGSEDDDSAPETTGHGFPHFSEAPARQGFSFNKMFTEKATEESWTSNSKKLERLGSAEQSSPDLSFLVVKNNMGEKHLFVDLGVYTRNRNFRLYKSSKIGKRVALEVTEDNKFFPIQSKDVSDEYQYFLSSLVSNVRFSDTLRILTCEPSQNKQKGVGYFNSIGTSVETIEGFQCSPYPEVDHFVLSLVNKDGIKGGIRRWNYFFPEELLVYDICKYRWCENIGRAHKSNNIMILVDLKNEVWYQKCHDPVCKAENFKSDCFPLPAEVCLLFLFKEEEEFTTDEADETRSNETQNPHKPSPSRLSTGASADAVWDNGIDDAYFLEATEDAELAEAAENSLLSYNSEVDEIPDELIIEVLQE

One assay covers variants of B1. In words: co-immunoprecipitation (anti-Flag agarose beads), immunoblot band quantification. The note with it: with Myc-PrimPol WT; USP36 stably knocked-down HEK293T cells; HU (10 mM) for 8 h; parent: 1.6; read off a plot; scale: relative band intensity.
On to chain 1 K329R K338R, for which the response was 1.6.

Staying with this assay, now noted: with Myc-PrimPol WT; USP36 stably knocked-down HEK293T cells; untreated (Ctrl); parent: 1; read off a plot; scale: relative band intensity.
Take chain 1 K329R K338R: the response is 1.6.
